From PMC2900151 (Biochemistry, 2010) come the findings set out here.

For the assay, the target named is T1, soluble recombinant human FGFR3c human-IgG chimeric protein (human, UniProt P22607 23-375).
T1 sequence (looked up): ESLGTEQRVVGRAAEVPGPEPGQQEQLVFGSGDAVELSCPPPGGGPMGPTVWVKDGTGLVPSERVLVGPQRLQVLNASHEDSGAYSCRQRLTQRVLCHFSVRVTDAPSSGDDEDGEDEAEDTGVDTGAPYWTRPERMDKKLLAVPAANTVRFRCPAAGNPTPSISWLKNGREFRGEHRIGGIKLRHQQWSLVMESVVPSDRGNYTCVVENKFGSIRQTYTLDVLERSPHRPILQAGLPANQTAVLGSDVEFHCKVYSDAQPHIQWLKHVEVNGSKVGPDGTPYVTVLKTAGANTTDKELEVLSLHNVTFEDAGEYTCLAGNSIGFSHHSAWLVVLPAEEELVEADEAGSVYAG
In words: ligand and carbohydrate engagement.

B1: recombinant human FGF18 (ligand, UniProt O76093 28-207, looked up)
chain: EENVDFRIHVENQTRARDDVSRKQLRLYQLYSRTSGKHIQVLGRRISARGEDGDKYAQLLVETDTFGSQVRIKGKETEFYLCMNRKGKLVGKPDGTSKECVFIEKVLENNYTALMSAKYSGWYVGFTKKGRPRKGPKTRENQQDVHFMKRYPKGQPELQKPFKYTTVTKRSRRIRPTHPA
As to B1, the binding result was “binds”.
